# Assay results taken from the DeepSol protein solubility set.
# Assay: soluble on expression in E. coli; label from the status in PepcDB or PDB records
row,Sequence,soluble on expression in E. coli
1,MLPNNQWQIPINNGLTHQENMAAHAAVMKLRVHDLQSIISQLSLRKPRPQKSEHQKVVVESLRDPHHARQIYQMVISLIFSSLQASNFPNGNYEMQKRPATTSQVRSHPYVLPSRSGASNHLVNHHYQQQQQQQPQPHNLLHQQMMASHHSHLQQQHHPSTPKKMYADNFEPLPLPFYDVISVLLKPVELHSSDSPTLKQTKQLQFPFLLTAEHISKISYRADVTPLPRYELQLRFFNLTEPVQGPQKDDFPLNCYARVDDSVVQLPNVIPTNKTNAEPKRPSRPVNITSNMNRYKKEHTVAVEWLADKRVWAAGVYFVHRVNSDILFKRLNQNVSRHRSLEVTKQEVIKKLSGGEDDIAMDRLNISLLDPLCKTRMTTPSRCQDCTHLQCFDLLSYLMMNEKKPTWQCPVCSSNCPYDRLIVDDYFLDMLAKVDKNTTEVELKEDGSYDVIKEEAFCISDDDDDDVVPATVNGTASCSSTNGNGLANEAAKKKPADDDIITLSDDDDEELNRGIMNSLNDSFSPGRHTASAELAAQKTPPQQKKKTKDDDIEIITLDDTPPRPVAASANLPMRQMSQQNQMPVGSSPSGMASTQMGMNEGASKTIRDALNKIGEPMINQAPHFQMQNGLIGRNNQMVHMQQHHLQQQQQQQQSPQIMSPSFYAQQQMSNGGAFAYYPPQYPQQQYRQN,not soluble
2,MLPPPRREPDWSAQAFRWHRQGLAGWLEAVHEPHAVALDRLACVDAQREQLLANTRQFVAGLPANNVLLTGARGTGKSSLVKALLPEFGRDGLRLIEIDREHLADLPQLVELLSGRPERFVLFCDDLSFEHGDAGYKALKSALDGGLARRCDNLLVYATSNRRHLLPEQMSENREGWLRDGEIHPGEAVEEKVSLSDRFGLWLSFYPFDQDAYLAAVREWLGHFGLKYGDKAERAALQWSLSRGSRSGRVAWQFACHWAGSQKLARRSGKKLEHHHHHH,not soluble
3,MLPSKYEDNALQIKEKSTERTAPFFVLEVTARSAADILGIHPNSAALFYRKIRTVINHHLALAADEVFEGPVEPDESDFGGRRKGRRGRGAAGKVVVFGILKRNGRVYTVVVDNAKSETLLPVIKKKIMPDSIVYTDSLSSYDKLDVSGFIHYRINHSKECADRQNHINGIENFWNQAKRVLRKYNGIDRKSFPLFLKECEFRFNFGTPSQQLKILRDWCGILEHHHHHH,not soluble
4,MLQPKRTKFRKVHKGRNRGIASGTEVSFGTYGLKAVGRCRLTARQIEAARRAMSRAVKRQGKIWIRVFPDKPITEKPLEVRMGKGKGNVEYWVALIQPGKVLYEMDGVSEEVARNAFALAAAKLPVKTTFVTKTVMLEHHHHHH,not soluble
5,MLQSNEYFSGKVKSIGFSSSSTGRASVGVMVEGEYTFSTAEPEEMTVISGALNVLLPDATDWQVYEAGSVFNVPGHSEFHLQVAEPTSYLCRYL,soluble
6,MLRFFIQPQLNTIVDSVIGYEMLIKEYRDGTWRMPASFSAIPAHDMAELLIATAKELSLKVGSVSFNVDRNQILDDQLIHALIAAQTVLRPVKLIIELIENDVKPSVSDEQLIEVVTQLNDFGIQFCLDDVGSGINTWPAVKPLLPYTRELKYALQNYKEHLNESAAENHVTFWQNLATKHQMRFILEGIEDDNDDAWADSMNIDLRQGYYYGRP,not soluble
7,MLRFYAMKQITEPGTYEIRGEVAEGDFSWDATNFAGFFYDVNDDVSTESLTVTGLNGGNVIPEGGLVYETTIQMVDYEYSKPSVGWDQFPVLGFFAEEYIPINADKADKLAKLVLDSDDKYTIRTGEQLDLGEGYAIEAKQVDVDGEKVWLEFTKDGEFVDDEIISVVSGSDNTWEVELDDIQDEDDVVVLRVHVNQVFQGAVDSIAQIEGIWLIDYANAMKIESDDEFGDLDNVKINGATLTITNEDTFTLTRDDEVEIGQGMFFKVADTAASDLRYYPFVEKTIDGEVVDDDEDDDNVTEPVDNDTEVEEPTEEPTEGPTEELEHHHHHH,not soluble
8,MLRGLRIIAENKIGVLRDLTTIIAEEGGNITFAQTFLIKHGEHEGKALIYFEIEGGDFEKILERVKTFDYIIEIEEEESFERVFGKRVIILGGGALVSQVAIGAISEADRHNLRGERISVDTMPVVGEEEIAEAVKAVSRLHRAEVLVLAGGIMGGKITEEVKKLRKSGIRVISLSMFGSVPDVADVVISDPVMAGTLAVMHISEKAKFDLDRVKGRRI,soluble
9,MLRKGVSFVGQAVQQTLKTQKNLRIQRFSATASQSSEEVNYEIRKDGKRLRGADYEEIVLTSIAGEDKTQIPKGAFDVLLKEYDDLQAESLDFKDKYQRSLAETENVRRRGIKQTDDAKVFAIQSFCKDLLEVSDILDIAVKSVKPEDLESGGKALKDLFEGVSMTRTVMAKTFAKHGLVTVDPTNEKFDPNLHEAVFQIPSANAKQPVGHIEVCTKIGYSLKERPIRPAQVGVVSK,not soluble
10,MLRKISLLLSICFLLHQNIAYGEDNQQSIYEKRMALYKETEQSSGIPWYYLAAMDQYERNIRSVRKDIPKKPDAIISLYFKPEIWAGPVNGNDTLPHTIALFGGLGLDGDKDGFANANNDRDLLHTAATILKKQGTSEERIKIMLWEYYRRAKTVDLITEYAQIYKHYGRINLEGNAFPLPIRSDHSYRSTFGAGRSFGGRRVHEGTDIFAGYGVPVRSTCYGIIETKGWNRLGGWRIGIRDLHNNYHYYAHLGGFSKEIQLGQIVEPGKVIGFVGSTGYGPPGTAGKFPPHLHFGMYKDNGYTEWAFDPYMHLSLWERKERANTKR,not soluble
11,MLRRQARERREYLYRKAQELQDSQLQQKRQIIKQALAQGKPLPKELAEDESLQKDFRYDQSLKESEEADDLQVDDEYAATSGIMDPRIIVTTSRDPSTRLSQFAKEIKLLFPNAVRLNRGNYVMPNLVDACKKSGTTDLVVLHEHRGVPTSLTISHFPHGPTAQFSLHNVVMRHDIINAGNQSEVNPHLIFDNFTTALGKRVVCILKHLFNAGPKKDSERVITFANRGDFISVRQHVYVRTREGVEIAEVGPRFEMRLFELRLGTLENKDADVEWQLRRFIRTANKKDYL,soluble
12,MLRRQMSFNGKSDMGILYLVPTPIGNLEDMTFRAIDTLKSVDAIAAEDTRQTKKLCHVYEIETPLVSYHEHNKESSGHKIIEWLKSGKNIALVSDAGLPTISDPGAEIVKDFTDIGGYVVPLPGANAALTALIASGIVPQPFFFYGFLNRQKKEKKKELEALKKRQETIIFYEAPHRLKETLSAMAEILGDREIAVTRELTKKYEEFIRGTISEVIGWANEDQIRGEFCLVVEGSNNEEVDEEEQWWETLTAKEHVEHYISKGATSKEAIKKAAVDRNVPKREVYDAYHIKQLEHHHHHH,not soluble
13,MLRVAVSAALRTVSVRALSNASVQQRVITPILLSAQKPSFQIRQYSAKAPLTKKTLEERIVLVLSLYDKIDAKKLTMDSDFSKDLGLDSLDHVEVVMAMEEEFGFEIPDGDADRFKTPRDIFQYIADKEDVFE,not soluble
14,MLSALLIAKRYSSKEDTMPHLFPDLPYAYDALEPYIDTKTMEVHYSKHHRTYYDKFLSAIKGTEHEDRPLSEIFARVSTLPAAVRNHGGGYYNHIVYWNCMKPNAGGEPQGELAAEIERQFGSFAQFKEAFSQAAVNTFGSGFVWLIVQQGQLSITSTSNQDNPLMDVVAVRGEPILALDVWEHAYYIRYQNRRPEYIDAWWNVVNWEAVSENYAIALTQAA,not soluble
15,MLSANRDCAFGRVHDFAGIRNAGDFRDKVPMHTYAQLQPWIERAQHESGAVLTTRPPLFFERSSGNSALQKLIPYTPEFLAQLQGSLTVWLADMYRQVPEISHGSGYWSMSPPLQQPAVSANGIPVGSVSDLQYLQGSAIAGLAGTLLIPDLAHDVVHWRRQTLLALVADADLSFISVWSPTFLTSLLQPLFDTERQTCAWLEAMLPASRKLALRHARAQGVFTELWPRLAAVSCWMDGPSHGYAVQLAALFPQARWLPKGLFATEGVVSVPFGEGQGCPLAIGSHYLEFVGDDGLPRGARSLRMGETAQVLLTTGAGLYRYVLGDRVRMVGNHAGTPRVAFVGRSASACDLVGEKLDEQLVEGVLAQCIDSADSACLIPDSRNTPPHYVALVSTSAVTPGQVLANSIETVLQGSFHYAHARTLGQLGPLRVRFVSGGAQTLAALLQRAAEATGVRAGDVKPRALISRLDTANALLAITEEFECPHL,not soluble
16,MLSATLLNRTVFHSLSPLHSLAHLASDMESSVNKAPSLIAAIVLGLGISACGYFVGDGVKHLKTNNRYVNVRGLSEKEVRADTAELTIAINFKGNVPGELFPKLEEAQKKIVAELNAQGINEKEIILGQWTSKRTDSFYLKDDPTMPRYNADGSVTIKTHNVAAVEKVVAKLNELQVATDGAIAESKVAYRFNGIGALRAEMIAAATKDARNAALQFATDSGSQVGSISDASQGVFQIFASGSDEDDPTAINKTVRVVTTVTYALQD,not soluble
17,MLSDYEEFLRLEKARKIILEILNEKGRDALYDLSGLSGGFLIDEKDKALLNTYIGSSYFAEKVNEYGLKHLGGDENDKCVGFNRTSSAILATILALKPKKVIHYLPELPGHPSIERSCKIVNAKYFESDKVGEILNKIDKDTLVIITGSTMDLKVIELENFKKVINTAKNKEAIVFVDDASGARVRLLFNQPPALKLGADLVVTSTDKLMEGPRGGLLAGKKELVDKIYIEGTKFGLEAQPPLLAGIYRALKNFNLERIRKAFERAKNFDLSKIEKLNKELKAIDDNINIVYERTPTGFVIKRVYKDDTINIKKLIEIGFNLLKNYGIITITVAGMPGASKSLRIDLTSRDAERIDDNYIIKAIVESIKMAFKS,soluble
18,MLSIIIPVYNEKGNILELTSRIKSALKNNEYEIVFVDDSTDETPKIIESLALKYNNIRLKHRKGKKGLSSAVIDGFKLARGDVLSVMDGDLQHPPEMLESMLFQMKKDTDIVICSRFVLGGKEEGLNIFRKFASFIARLIGKIFLKPLRKISDPTAGFFMLKRKVIKNRDLRAIGWKILIEILVMGDYKRVVELPYSFKRRKHEKSKFTISVQGQYLKQIVSLFIRSKKYNIKLEHHHHHH,soluble
19,MLSIKDLHVSVEDKAILRGLSLDVRPGEVHAIMGPNGSGKSTLSATLAGREDYEVTGGTVEFKGKDLLALSPEDRAGEGIFMAFQYPVEIPGVSNQFFLQTALNAVRSYRGQETLDRFDFQDLMEEKIALLKMPEDLLTRSVNVGFSGGEKKRNDILQMAVLEPELCILDESDSGLDIDALKVVADGVNSLRDGKRSFIIVTHYQRILDYIKPDYVHVLYQGRIVKSGDFTLVKQLEEQGYGWLTEQQ,not soluble
20,MLSLNLPVFDTKINVRNGKNVIFDVIRKRYVALTPEEWVRQHFVHFLIAHKGYPNALLANEVMVKLNGTTKRCDTVLYRRDLSARMIVEYKAPHIEITQAVFDQITRYNMVLKVDYLIVSNGMQHYCCRMDYAHQSYTFLQDIPDYNAL,not soluble
21,MLSTIEYLSLLRKYMRENAVKYGISRMGIFGSVARGEQHDGSDVDICVEIDRPSIFTLVHIKEELEKLFKCPVDVVRLRNNMDELLRNCINKDGIYV,not soluble
22,MLSYRHSFHAGNHADVLKHTVQSLIIESLKEKDKPFLYLDTHAGAGRYQLGSEHAERTGEYLEGIARIWQQDDLPAELEAYINVVKHFNRSGQLRYYPGSPLIARQLLREQDSLQLTELHPSDYPLLRSGFQKDSRARVEKADGFQQLKAKLPPVSRRGLILIDPPYEMKTDYQAVVSGIAEGYKRFATGTYALWYPVVLRQQIKRMIHDLEATGIRKILQIELAVLPDSDRRGMTASGMIVINPPWKLEQQMNNVLSWLHSKLVPAGTGHATVSWIVPE,not soluble
23,MLTITQALVDQIVAHARQDHPDEACGVVAGPEGSGRPERFIPMLNAARSPTFYEFDSGDLLKLYREMDDRDEEPVIIYHSHTATEAYPSRTDISYANEPGAHYVLVSTADADDAGPFQFRSFQIVAGEVTEEEVKVVEAYLEHHHHHH,soluble
24,MLTKQPIAKKLNVSADVVWKVVRNIGRLDVWFPIIETCRVEGEGAGALRYMTVAGGGEIRDTIEEIDDVTMRLTYLRPLSPFPVTYYKGTVEVFKSYDGLAIVVWTIDFESEPEDAASVAELVRSAISDGIDGMERDLRGALEHHHHHH,soluble
